Source: patent US20080199851A1
Several values for one entry are separate records, joined by “and”; a condition that tells them apart may be missing. Equal entries are not always repeated.

Tests used:
[1] = target: Recombinant H5 hemagglutinin; assay: lateral-flow sandwich, 3C8 line + 3G4-gold, 50 uL buffer, 15 min
[2] = target: Recombinant H5 hemagglutinin; assay: lateral-flow sandwich, 3C8 line + 3G4-gold, 50 uL buffer, 20 min
[3] = target: Recombinant H5 hemagglutinin; assay: lateral-flow sandwich, 3C8 line + 3G4-gold, 50 uL buffer, 25 min
[4] = target: Recombinant H5 hemagglutinin; assay: lateral-flow sandwich, 3C8 line + 3G4-gold, 50 uL buffer, 30 min
[5] = target: Recombinant H5 hemagglutinin; assay: lateral-flow sandwich, 3C8 line + 3G4-gold, 60 uL buffer, 15 min
[6] = target: Recombinant H5 hemagglutinin; assay: lateral-flow sandwich, 3C8 line + 3G4-gold, 60 uL buffer, 20 min
[7] = target: Recombinant H5 hemagglutinin; assay: lateral-flow sandwich, 3C8 line + 3G4-gold, 60 uL buffer, 25 min
[8] = target: Recombinant H5 hemagglutinin; assay: lateral-flow sandwich, 3C8 line + 3G4-gold, 60 uL buffer, 30 min
[9] = target: Recombinant H5 hemagglutinin; assay: lateral-flow sandwich, 3C8 line + 3G4-gold, 70 uL buffer, 15 min
[10] = target: Recombinant H5 hemagglutinin; assay: lateral-flow sandwich, 3C8 line + 3G4-gold, 70 uL buffer, 20 min
[11] = target: Recombinant H5 hemagglutinin; assay: lateral-flow sandwich, 3C8 line + 3G4-gold, 70 uL buffer, 25 min
[12] = target: Recombinant H5 hemagglutinin; assay: lateral-flow sandwich, 3C8 line + 3G4-gold, 70 uL buffer, 30 min
[13] = target: Recombinant H5 hemagglutinin; assay: lateral-flow sandwich, 3C8 line + 3G4-gold, 80 uL buffer, 15 min
[14] = target: Recombinant H5 hemagglutinin; assay: lateral-flow sandwich, 3C8 line + 3G4-gold, 80 uL buffer, 20 min
[15] = target: Recombinant H5 hemagglutinin; assay: lateral-flow sandwich, 3C8 line + 3G4-gold, 80 uL buffer, 25 min
[16] = target: Recombinant H5 hemagglutinin; assay: lateral-flow sandwich, 3C8 line + 3G4-gold, 80 uL buffer, 30 min
[17] = target: Recombinant H5 hemagglutinin; assay: lateral-flow sandwich, 3C8 line + 3G4-gold, 50 uL buffer, 15 min; remark: listed apart in the source
[18] = target: Recombinant H5 hemagglutinin; assay: lateral-flow sandwich, 3C8 line + 3G4-gold, 60 uL buffer, 15 min; remark: listed apart in the source
[19] = target: Recombinant H5 hemagglutinin; assay: lateral-flow sandwich, 3C8 line + 3G4-gold, 70 uL buffer, 15 min; remark: listed apart in the source
[20] = target: Recombinant H5 hemagglutinin; assay: lateral-flow sandwich, 3C8 line + 3G4-gold, 100 uL buffer, 15 min
[21] = target: Recombinant H5 hemagglutinin; assay: lateral-flow sandwich, 3C8 line + 3G4-gold, 100 uL buffer, 20 min
[22] = target: Recombinant H5 hemagglutinin; assay: lateral-flow sandwich, 3C8 line + 3G4-gold, 100 uL buffer, 25 min
[23] = target: Recombinant H5 hemagglutinin; assay: lateral-flow sandwich, 3C8 line + 3G4-gold, 100 uL buffer, 30 min

B1: monoclonal antibody 3C8 (antibody, V domains shown)
VH: QIQLVQSGPELKKPGETVKISCKASGYSFTNYGMNWVKQAPGKGLKWMGWINTYTGEPAYADDFKGRFAFSLETSASTAYLQINNLKNEDTATYFCARWNRDAMDYWGQGTSVTVSS
VL: DIVLTQSPASLAVSLGQRATISCRASESVDSSDNSLMHWYQQKPGQPPKLLIYRASNLESGIPARFSGSGSRTDFTLTINPVEADDVATYYCQQSIGDPPYTFGGGTKLEIKR
B1 was tested, and the Peak Intensity [1] was 55.6 and 51.1, the Peak Intensity [2] was 62.3 and 57.3 and the Peak Intensity [3] was 63.1 and 55.4. The Peak Intensity [4] was 62.5 and 62.6, the Peak Intensity [5] was 53.5 and 51.6 and the Peak Intensity [6] was 65.7 and 63.8. The Peak Intensity [7] was 68.5 and 66.2, the Peak Intensity [8] was 68.9 and 66.5 and the Peak Intensity [9] was 45.6 and 42.1. The Peak Intensity [10] was 57.9 and 57, the Peak Intensity [11] was 60.4 and 61.7 and the Peak Intensity [12] was 60.7 and 63.9. The Peak Intensity [13] was 39.6 and 42.9, the Peak Intensity [14] was 53.7 and 57.9 and the Peak Intensity [15] was 59.8 and 64.7. The Peak Intensity [16] was 61.5 and 65.4, the Peak Intensity [17] was 56.9 and 57.8 and the Peak Intensity [18] was 50.2 and 51.2. The Peak Intensity [19] was 46.8 and 47.9, the Peak Intensity [20] was 35.2 and 30.8 and the Peak Intensity [21] was 49.2 and 44.9. The Peak Intensity [22] was 54.6 and 49.3 and the Peak Intensity [23] was 55.6 and 49.8.
